Reference: patent US20260116944A1, “NOVEL TRIPLE GLP-1/GIP/GLUCAGON RECEPTOR AGONIST AND A PHARMACEUTICAL COMPOSITION FOR PREVENTING OR TREATING OBESITY COMPRISING THE SAME” (HANMI PHARM. CO., LTD., priority 2022, published 2026)
Values belong to the binder of their own block, whether it stands above or below them. *1 amine or outer side, *2 acyl side, *3 side chain or, on linkers, in order; H or OH if unused. Bridges are numbered along the chain shown (N, C = ends). Where no end group is shown, it is not given here. Side-chain parts run from the residue outwards. [ ]: non-standard residue; d: D form. The star is where a group is joined. C20 diacid = O=C(O)CCCCCCCCCCCCCCCCCCC(=O)*; γGlu = O=C(O)[C@H](CCC(=O)[*:2])N[*:1]; AEEA = NCCOCCOCC(=O)O; Aib = CC(C)(N)C(=O)O

Key:
Assay in all cases: cell-based or functional assay
human GCG receptor = human GCG receptor (human, UniProt P47871 26-477)
Sequence of human GCG receptor (P47871 26-477): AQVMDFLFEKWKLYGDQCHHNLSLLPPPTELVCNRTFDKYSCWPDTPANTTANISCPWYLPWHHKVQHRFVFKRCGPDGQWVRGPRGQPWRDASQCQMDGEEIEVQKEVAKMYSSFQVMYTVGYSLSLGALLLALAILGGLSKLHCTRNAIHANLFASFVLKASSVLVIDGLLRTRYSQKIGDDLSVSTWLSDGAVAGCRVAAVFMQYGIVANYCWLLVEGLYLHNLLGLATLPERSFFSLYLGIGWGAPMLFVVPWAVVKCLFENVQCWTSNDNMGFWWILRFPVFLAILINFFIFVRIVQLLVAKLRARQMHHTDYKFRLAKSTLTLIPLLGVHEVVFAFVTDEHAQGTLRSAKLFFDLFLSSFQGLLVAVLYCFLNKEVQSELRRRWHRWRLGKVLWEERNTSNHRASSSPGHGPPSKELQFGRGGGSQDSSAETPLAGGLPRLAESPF

human GIP receptor = molecular target: T1, human GIP receptor (human, UniProt P48546 22-466)
T1 sequence (looked up): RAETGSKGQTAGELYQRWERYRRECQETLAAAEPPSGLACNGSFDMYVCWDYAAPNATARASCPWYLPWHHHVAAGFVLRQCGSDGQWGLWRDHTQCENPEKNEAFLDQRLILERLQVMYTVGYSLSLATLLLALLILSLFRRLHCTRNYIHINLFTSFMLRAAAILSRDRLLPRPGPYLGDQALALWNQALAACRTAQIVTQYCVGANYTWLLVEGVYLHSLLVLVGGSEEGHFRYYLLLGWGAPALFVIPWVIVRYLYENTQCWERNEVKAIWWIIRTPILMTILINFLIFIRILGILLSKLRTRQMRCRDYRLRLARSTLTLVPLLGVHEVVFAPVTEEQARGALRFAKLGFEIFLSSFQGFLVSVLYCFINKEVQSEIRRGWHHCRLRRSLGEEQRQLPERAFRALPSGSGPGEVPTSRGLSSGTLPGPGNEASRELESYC

human GLP-1 receptor = human GLP-1 receptor (human, UniProt P43220 24-463)

- In vitro Activity Compared to Native Peptide (%) vs. Glucagon (relative titer from cAMP EC50) (human GCG receptor): 3.35 % of human GCG
- In vitro Activity Compared to Native Peptide (%) vs. GIP (relative titer from cAMP EC50) (human GIP receptor): 2.17 % of human GIP
- In vitro Activity Compared to Native Peptide (%) vs. GLP-1 (relative titer from cAMP EC50) (human GLP-1 receptor): 3.87 % of human GLP-1
B1: triple agonist of SEQ ID NO: 2 (peptide)
peptide: Y[Aib]QGTFTSDYSK([AEEA-AEEA-γGlu-C20 diacid])YLDEKRAKEFVQWLLDHHPSSGQPPPS-NH2
modifications: lactam 16-20; N-terminus assumed
SMILES: CC(C)C[C@H](NC(=O)[C@H](Cc1ccc(O)cc1)NC(=O)[C@H](CCCCNC(=O)COCCOCCNC(=O)COCCOCCNC(=O)CC[C@H](NC(=O)CCCCCCCCCCCCCCCCCCC(=O)O)C(=O)O)NC(=O)[C@H](CO)NC(=O)[C@H](Cc1ccc(O)cc1)NC(=O)[C@H](CC(=O)O)NC(=O)[C@H](CO)NC(=O)[C@@H](NC(=O)[C@H](Cc1ccccc1)NC(=O)[C@@H](NC(=O)CNC(=O)[C@H](CCC(N)=O)NC(=O)C(C)(C)NC(=O)[C@@H](N)Cc1ccc(O)cc1)[C@@H](C)O)[C@@H](C)O)C(=O)N[C@@H](CC(=O)O)C(=O)N[C@H]1CCC(=O)NCCCC[C@@H](C(=O)N[C@@H](CCC(=O)O)C(=O)N[C@@H](Cc2ccccc2)C(=O)N[C@H](C(=O)N[C@@H](CCC(N)=O)C(=O)N[C@@H](Cc2c[nH]c3ccccc23)C(=O)N[C@@H](CC(C)C)C(=O)N[C@@H](CC(C)C)C(=O)N[C@@H](CC(=O)O)C(=O)N[C@@H](Cc2c[nH]cn2)C(=O)N[C@@H](Cc2c[nH]cn2)C(=O)N2CCC[C@H]2C(=O)N[C@@H](CO)C(=O)N[C@@H](CO)C(=O)NCC(=O)N[C@@H](CCC(N)=O)C(=O)N2CCC[C@H]2C(=O)N2CCC[C@H]2C(=O)N2CCC[C@H]2C(=O)N[C@@H](CO)C(N)=O)C(C)C)NC(=O)[C@H](C)NC(=O)[C@H](CCCNC(=N)N)NC(=O)[C@H](CCCCN)NC1=O

- In vitro Activity Compared to Native Peptide (%) vs. Glucagon (relative titer from cAMP EC50) (human GCG receptor): 0.4 % of human GCG
- In vitro Activity Compared to Native Peptide (%) vs. GIP (relative titer from cAMP EC50) (human GIP receptor): 7.04 % of human GIP
- In vitro Activity Compared to Native Peptide (%) vs. GLP-1 (relative titer from cAMP EC50) (human GLP-1 receptor): 5.52 % of human GLP-1
B2: triple agonist of SEQ ID NO: 3 (peptide)
peptide: Y[Aib]QGTFTSDYSK([AEEA-AEEA-γGlu-C20 diacid])YLDEKAAKDFVQWLLDQHPSSGQPPPS-NH2
modifications: lactam 16-20; N-terminus assumed
SMILES: CC(C)C[C@H](NC(=O)[C@H](Cc1ccc(O)cc1)NC(=O)[C@H](CCCCNC(=O)COCCOCCNC(=O)COCCOCCNC(=O)CC[C@H](NC(=O)CCCCCCCCCCCCCCCCCCC(=O)O)C(=O)O)NC(=O)[C@H](CO)NC(=O)[C@H](Cc1ccc(O)cc1)NC(=O)[C@H](CC(=O)O)NC(=O)[C@H](CO)NC(=O)[C@@H](NC(=O)[C@H](Cc1ccccc1)NC(=O)[C@@H](NC(=O)CNC(=O)[C@H](CCC(N)=O)NC(=O)C(C)(C)NC(=O)[C@@H](N)Cc1ccc(O)cc1)[C@@H](C)O)[C@@H](C)O)C(=O)N[C@@H](CC(=O)O)C(=O)N[C@H]1CCC(=O)NCCCC[C@@H](C(=O)N[C@@H](CC(=O)O)C(=O)N[C@@H](Cc2ccccc2)C(=O)N[C@H](C(=O)N[C@@H](CCC(N)=O)C(=O)N[C@@H](Cc2c[nH]c3ccccc23)C(=O)N[C@@H](CC(C)C)C(=O)N[C@@H](CC(C)C)C(=O)N[C@@H](CC(=O)O)C(=O)N[C@@H](CCC(N)=O)C(=O)N[C@@H](Cc2c[nH]cn2)C(=O)N2CCC[C@H]2C(=O)N[C@@H](CO)C(=O)N[C@@H](CO)C(=O)NCC(=O)N[C@@H](CCC(N)=O)C(=O)N2CCC[C@H]2C(=O)N2CCC[C@H]2C(=O)N2CCC[C@H]2C(=O)N[C@@H](CO)C(N)=O)C(C)C)NC(=O)[C@H](C)NC(=O)[C@H](C)NC(=O)[C@H](CCCCN)NC1=O
